These results are taken from patent US8703708.

What all share (assay): cell-based or functional assay
Test [1] has as its target Lrp5 + Fzd4 co-expressed on STF (superTOPFLASH) reporter cells (UniProt Q91VN0).
Test [2] has as its target Lrp5 + Fzd7 co-expressed on STF (superTOPFLASH) reporter cells (UniProt Q91VN0).
The target in test [3] is Lrp6 + Fzd4 co-expressed on STF (superTOPFLASH) reporter cells (UniProt O88572).
Test [4] deals with Lrp6 + Fzd7 co-expressed on STF (superTOPFLASH) reporter cells (UniProt O88572).
Chain of Lrp6 + Fzd7 co-expressed on STF (superTOPFLASH) reporter cells (O88572 20-1613 limits assumed, chain 1 of 2, other chains not shown): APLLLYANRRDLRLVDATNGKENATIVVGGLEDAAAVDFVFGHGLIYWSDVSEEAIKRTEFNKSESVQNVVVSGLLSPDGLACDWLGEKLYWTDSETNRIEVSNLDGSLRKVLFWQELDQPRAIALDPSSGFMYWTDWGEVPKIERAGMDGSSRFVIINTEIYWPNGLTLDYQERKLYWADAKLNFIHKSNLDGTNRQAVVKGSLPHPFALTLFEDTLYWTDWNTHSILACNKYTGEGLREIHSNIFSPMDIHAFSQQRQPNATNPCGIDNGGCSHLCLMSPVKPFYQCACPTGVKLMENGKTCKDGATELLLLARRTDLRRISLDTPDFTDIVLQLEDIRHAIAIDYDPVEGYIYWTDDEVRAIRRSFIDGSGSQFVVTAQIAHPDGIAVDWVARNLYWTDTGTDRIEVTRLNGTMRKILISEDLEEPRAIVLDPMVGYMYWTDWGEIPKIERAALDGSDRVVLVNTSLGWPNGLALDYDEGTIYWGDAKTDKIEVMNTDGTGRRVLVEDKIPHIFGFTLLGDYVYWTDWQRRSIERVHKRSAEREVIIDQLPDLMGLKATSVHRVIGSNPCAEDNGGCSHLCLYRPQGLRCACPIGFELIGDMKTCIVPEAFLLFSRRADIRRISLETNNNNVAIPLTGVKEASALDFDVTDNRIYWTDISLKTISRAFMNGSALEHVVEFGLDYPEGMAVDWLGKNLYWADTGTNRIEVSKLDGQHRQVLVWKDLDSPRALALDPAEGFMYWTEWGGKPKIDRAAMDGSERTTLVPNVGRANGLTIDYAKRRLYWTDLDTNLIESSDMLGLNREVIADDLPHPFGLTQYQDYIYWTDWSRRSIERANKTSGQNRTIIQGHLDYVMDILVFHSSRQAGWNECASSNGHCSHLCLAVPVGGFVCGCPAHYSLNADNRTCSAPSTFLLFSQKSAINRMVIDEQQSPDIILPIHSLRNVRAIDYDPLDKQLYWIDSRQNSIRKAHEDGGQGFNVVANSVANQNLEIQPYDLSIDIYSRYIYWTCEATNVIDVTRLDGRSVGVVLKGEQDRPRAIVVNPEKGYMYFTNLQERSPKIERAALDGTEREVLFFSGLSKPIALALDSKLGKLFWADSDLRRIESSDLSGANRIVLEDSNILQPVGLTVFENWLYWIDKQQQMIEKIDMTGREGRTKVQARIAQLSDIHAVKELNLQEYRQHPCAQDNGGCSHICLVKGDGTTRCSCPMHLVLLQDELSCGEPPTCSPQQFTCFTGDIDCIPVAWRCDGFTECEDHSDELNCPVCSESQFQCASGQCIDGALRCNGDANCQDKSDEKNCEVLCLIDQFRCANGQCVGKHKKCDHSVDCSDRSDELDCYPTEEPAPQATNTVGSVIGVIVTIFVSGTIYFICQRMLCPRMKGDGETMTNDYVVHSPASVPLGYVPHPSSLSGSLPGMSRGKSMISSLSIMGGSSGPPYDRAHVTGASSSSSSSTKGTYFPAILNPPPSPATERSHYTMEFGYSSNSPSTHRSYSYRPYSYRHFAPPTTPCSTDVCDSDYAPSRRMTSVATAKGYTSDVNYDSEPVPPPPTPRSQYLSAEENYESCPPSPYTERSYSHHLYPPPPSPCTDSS

Chain of Lrp5 + Fzd7 co-expressed on STF (superTOPFLASH) reporter cells (Q91VN0 31-1614 limits assumed, chain 1 of 2, other chains not shown): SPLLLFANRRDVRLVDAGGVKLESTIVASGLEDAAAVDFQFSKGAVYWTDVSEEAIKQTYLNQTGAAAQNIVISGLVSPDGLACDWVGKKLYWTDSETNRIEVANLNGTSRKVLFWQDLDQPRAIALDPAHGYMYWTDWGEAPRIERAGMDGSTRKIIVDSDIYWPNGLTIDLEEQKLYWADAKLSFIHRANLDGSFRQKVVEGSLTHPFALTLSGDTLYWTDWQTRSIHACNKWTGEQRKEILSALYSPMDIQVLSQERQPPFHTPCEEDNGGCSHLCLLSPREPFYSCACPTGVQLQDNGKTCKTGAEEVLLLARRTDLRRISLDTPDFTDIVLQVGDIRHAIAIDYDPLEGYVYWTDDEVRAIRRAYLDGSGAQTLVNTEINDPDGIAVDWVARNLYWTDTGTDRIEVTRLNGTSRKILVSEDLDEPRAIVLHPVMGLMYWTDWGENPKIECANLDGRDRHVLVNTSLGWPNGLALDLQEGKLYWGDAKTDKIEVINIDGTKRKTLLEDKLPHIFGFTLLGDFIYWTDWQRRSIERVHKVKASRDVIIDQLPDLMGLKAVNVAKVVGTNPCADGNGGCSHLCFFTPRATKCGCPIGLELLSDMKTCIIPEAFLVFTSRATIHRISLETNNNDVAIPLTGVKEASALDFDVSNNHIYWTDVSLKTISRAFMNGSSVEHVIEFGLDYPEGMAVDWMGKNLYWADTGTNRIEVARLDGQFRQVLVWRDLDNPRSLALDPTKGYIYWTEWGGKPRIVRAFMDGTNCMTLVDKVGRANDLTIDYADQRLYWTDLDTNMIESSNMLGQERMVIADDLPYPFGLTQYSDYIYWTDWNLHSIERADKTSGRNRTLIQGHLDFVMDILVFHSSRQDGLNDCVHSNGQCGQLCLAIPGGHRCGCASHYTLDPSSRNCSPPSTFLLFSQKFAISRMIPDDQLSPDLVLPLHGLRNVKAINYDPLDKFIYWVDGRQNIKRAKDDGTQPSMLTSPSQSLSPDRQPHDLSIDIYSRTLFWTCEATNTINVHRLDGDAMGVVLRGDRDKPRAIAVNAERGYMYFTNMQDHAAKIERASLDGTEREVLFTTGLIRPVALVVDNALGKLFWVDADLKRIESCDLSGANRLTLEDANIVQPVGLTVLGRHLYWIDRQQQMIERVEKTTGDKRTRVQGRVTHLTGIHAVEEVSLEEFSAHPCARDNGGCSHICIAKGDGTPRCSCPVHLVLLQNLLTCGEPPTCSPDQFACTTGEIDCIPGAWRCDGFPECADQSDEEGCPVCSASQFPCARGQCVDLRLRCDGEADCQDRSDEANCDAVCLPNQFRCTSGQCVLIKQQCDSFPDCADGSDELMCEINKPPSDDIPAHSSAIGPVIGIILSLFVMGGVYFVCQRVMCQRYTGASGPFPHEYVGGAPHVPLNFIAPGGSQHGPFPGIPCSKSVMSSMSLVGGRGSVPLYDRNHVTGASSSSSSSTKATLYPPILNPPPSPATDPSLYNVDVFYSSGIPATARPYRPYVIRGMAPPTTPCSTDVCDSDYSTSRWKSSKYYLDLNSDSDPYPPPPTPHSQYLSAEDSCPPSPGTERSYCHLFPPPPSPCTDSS
Chain of Lrp5 + Fzd4 co-expressed on STF (superTOPFLASH) reporter cells (Q91VN0 31-1614 limits assumed, chain 1 of 2): as the sequence (Q91VN0 31-1614 limits assumed, chain 1 of 2, other chains not shown) above
Chain of Lrp5 + Fzd4 co-expressed on STF (superTOPFLASH) reporter cells (Q61088 37-537 limits assumed, chain 2 of 2, further chain): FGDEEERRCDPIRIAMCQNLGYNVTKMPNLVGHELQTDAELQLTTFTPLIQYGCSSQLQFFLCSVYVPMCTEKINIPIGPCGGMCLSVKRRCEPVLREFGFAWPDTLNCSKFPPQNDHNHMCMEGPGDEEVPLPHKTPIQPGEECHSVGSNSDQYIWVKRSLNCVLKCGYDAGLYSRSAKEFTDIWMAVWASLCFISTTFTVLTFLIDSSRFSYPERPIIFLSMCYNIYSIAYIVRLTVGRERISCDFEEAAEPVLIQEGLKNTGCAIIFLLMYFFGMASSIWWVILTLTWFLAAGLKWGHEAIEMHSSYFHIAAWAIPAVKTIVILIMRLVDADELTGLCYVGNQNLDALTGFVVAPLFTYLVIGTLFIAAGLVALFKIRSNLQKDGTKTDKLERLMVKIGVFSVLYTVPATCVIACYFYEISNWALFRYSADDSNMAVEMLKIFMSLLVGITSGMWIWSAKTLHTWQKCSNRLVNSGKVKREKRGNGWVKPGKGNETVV
Chain of Lrp6 + Fzd4 co-expressed on STF (superTOPFLASH) reporter cells (O88572 20-1613 limits assumed, chain 1 of 2): as the sequence (O88572 20-1613 limits assumed, chain 1 of 2, other chains not shown) above
Chain of Lrp6 + Fzd4 co-expressed on STF (superTOPFLASH) reporter cells (Q61088 37-537 limits assumed, chain 2 of 2, further chain): as the sequence (Q61088 37-537 limits assumed, chain 2 of 2, further chain) above

With “Wnt7b (ORF cloned from C57BL6 kidney cDNA, expressed by 293 cells or bone marrow macrophages) (from UniProt P28047 25-349) (ligand)”, in test [1], the Firefly Luciferase, absolute light units, STF reporter cells co-cultured with 293-Wnt7b (293-control: 6430) (absolute light units) is 26900. Further, in test [2], the Firefly Luciferase, absolute light units, STF reporter cells co-cultured with 293-Wnt7b (293-control: 16172) (absolute light units) turned out to be 51600. In test [3], the Firefly Luciferase, absolute light units, STF reporter cells co-cultured with 293-Wnt7b (293-control: 573) (absolute light units) was 10100. In test [4], the Firefly Luciferase, absolute light units, STF reporter cells co-cultured with 293-Wnt7b (293-control: 464) (absolute light units) was found to be 11500.
